# Source: patent publication US20180177842A1 (CANIMGUIDE THERAPEUTICS, published 2018)
# Ends that are not written are not given here.
# Biological target: T1, His-tagged P3028 (human, also: His tag, length and end not given here)
# T1 construct: in solution at 0.5 ug/mL, detected with mouse anti-His antibody and rabbit anti-mouse peroxidase (rampo); also called PGE73; His-tag-P3028; not shown: His tag
# T1 peptide: VFDEFKPLVEEPQNLIK
# Assay: PEPSCAN ELISA, peptide on chip;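 further: binding detected by peroxidase ELISA with ABTS, OD405 colour imaged by CCD camera before and after staining, raw OD405 reported as rampo units, air-bubble wells scored 0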
row,Binder,RAMPO Score
1,MKLDTFFVKLSLFTER [SEQ ID NO 275],457 rampo units
2,KKIDTFFVKLSLFTER [SEQ ID NO 289],454 rampo units
3,KKLDYFFVKLSLFTER [SEQ ID NO 312],425 rampo units
4,KKLDTFVVKLSLFTER [SEQ ID NO 325],527 rampo units
5,KKLDTFFVKISLFTER [SEQ ID NO 335],415 rampo units
6,KKLDQFFVKLSLFTER [SEQ ID NO 308],535 rampo units
7,KKLDTFFVKQSLFTER [SEQ ID NO 339],470 rampo units
8,KKLDTVFVKLSLFTER [SEQ ID NO 319],547 rampo units
9,RKLDTFFVKLSLFTER [SEQ ID NO 279],523 rampo units
10,KKLDTFSVKLSLFTER [SEQ ID NO 323],700 rampo units
11,KKDDTFFVKLSLFTER [SEQ ID NO 284],492 rampo units
12,KKNDTFFVKLSLFTER [SEQ ID NO 292],374 rampo units
13,KKLDRFFVKLSLFTER [SEQ ID NO 309],430 rampo units
14,KKLDTFQVKLSLFTER [SEQ ID NO 322],511 rampo units
15,KKLDTFMVKLSLFTER [SEQ ID NO 321],712 rampo units
16,KKLDTTFVKLSLFTER [SEQ ID NO 318],481 rampo units
17,KKSDTFFVKLSLFTER [SEQ ID NO 295],393 rampo units
18,KKLDTPFVKLSLFTER [SEQ ID NO 317],497 rampo units
19,KKLDMFFVKLSLFTER [SEQ ID NO 305],475 rampo units
20,KKTDTFFVKLSLFTER [SEQ ID NO 296],451 rampo units
21,KKLDTFLVKLSLFTER [SEQ ID NO 320],517 rampo units
22,KKLDTMFVKLSLFTER [SEQ ID NO 315],467 rampo units

row,Binder,RAMPO Score
1,KKLDTFFRKLSLFTER [SEQ ID NO 330],365 rampo units
2,KKLDTNFVKLSLFTER [SEQ ID NO 316],446 rampo units
3,KKLDTIFVKLSLFTER [SEQ ID NO 314],466 rampo units
4,KKLDTFFPKLSLFTER [SEQ ID NO 329],456 rampo units
5,KKLDTFFVRLSLFTER [SEQ ID NO 331],374 rampo units
6,PKLDTFFVKLSLFTER [SEQ ID NO 277],387 rampo units
7,KKFDTFFVKLSLFTER [SEQ ID NO 286],393 rampo units
8,KKLVTFFVKLSLFTER [SEQ ID NO 301],424 rampo units
9,KKCDTFFVKLSLFTER [SEQ ID NO 283],432 rampo units
10,KKLDPFFVKLSLFTER [SEQ ID NO 307],427 rampo units
11,KKLWTFFVKLSLFTER [SEQ ID NO 302],443 rampo units
12,KKADTFFVKLSLFTER [SEQ ID NO 282],427 rampo units
13,KKVDTFFVKLSLFTER [SEQ ID NO 297],377 rampo units
14,KKLDTFFVKNSLFTER [SEQ ID NO 337],365 rampo units
15,KKLDTFFVKMSLFTER [SEQ ID NO 336],460 rampo units
16,NKLDTFFVKLSLFTER [SEQ ID NO 276],445 rampo units
17,KKLDTAFVKLSLFTER [SEQ ID NO 313],575 rampo units
18,KKLETFFVKLSLFTER [SEQ ID NO 299],417 rampo units
19,KKLDSFFVKLSLFTER [SEQ ID NO 310],458 rampo units
20,KKLDTFTVKLSLFTER [SEQ ID NO 324],517 rampo units
21,KKLYTFFVKLSLFTER [SEQ ID NO 303],422 rampo units
22,KKLDCFFVKLSLFTER [SEQ ID NO 304],449 rampo units

row,Binder,RAMPO Score
1,KKLDTFFLKLSLFTER [SEQ ID NO 328],411 rampo units
2,KKMDTFFVKLSLFTER [SEQ ID NO 291],460 rampo units
3,KKHDTFFVKLSLFTER [SEQ ID NO 288],477 rampo units
4,KKLDTFFVKASLFTER [SEQ ID NO 332],426 rampo units
5,KKLDWFFVKLSLFTER [SEQ ID NO 311],418 rampo units
6,KKGDTFFVKLSLFTER [SEQ ID NO 287],563 rampo units
7,KKQDTFFVKLSLFTER [SEQ ID NO 293],473 rampo units
8,KKKDTFFVKLSLFTER [SEQ ID NO 290],386 rampo units
9,TKLDTFFVKLSLFTER [SEQ ID NO 280],493 rampo units
10,KKLDTFFVKFSLFTER [SEQ ID NO 333],403 rampo units
11,VKLDTFFVKLSLFTER [SEQ ID NO 281],442 rampo units
12,KKLDTFFGKLSLFTER [SEQ ID NO 327],379 rampo units
13,QKLDTFFVKLSLFTER [SEQ ID NO 278],455 rampo units
14,KKLDNFFVKLSLFTER [SEQ ID NO 306],436 rampo units
15,KKLITFFVKLSLFTER [SEQ ID NO 300],430 rampo units
16,KKLDTFFVKGSLFTER [SEQ ID NO 334],495 rampo units
17,KKEDTFFVKLSLFTER [SEQ ID NO 285],528 rampo units
18,KKLDTFFFKLSLFTER [SEQ ID NO 326],358 rampo units
19,KKRDTFFVKLSLFTER [SEQ ID NO 294],370 rampo units
20,KKLDTFFVKPSLFTER [SEQ ID NO 338],436 rampo units
21,KKLATFFVKLSLFTER [SEQ ID NO 298],494 rampo units
